According to patent publication US6518016:

Biological target: factor Xa-activated factor V(Q506) (UniProt P12259)
Chain of UniProt P12259 (P12259 29-737 R534Q, chain 1 of 2): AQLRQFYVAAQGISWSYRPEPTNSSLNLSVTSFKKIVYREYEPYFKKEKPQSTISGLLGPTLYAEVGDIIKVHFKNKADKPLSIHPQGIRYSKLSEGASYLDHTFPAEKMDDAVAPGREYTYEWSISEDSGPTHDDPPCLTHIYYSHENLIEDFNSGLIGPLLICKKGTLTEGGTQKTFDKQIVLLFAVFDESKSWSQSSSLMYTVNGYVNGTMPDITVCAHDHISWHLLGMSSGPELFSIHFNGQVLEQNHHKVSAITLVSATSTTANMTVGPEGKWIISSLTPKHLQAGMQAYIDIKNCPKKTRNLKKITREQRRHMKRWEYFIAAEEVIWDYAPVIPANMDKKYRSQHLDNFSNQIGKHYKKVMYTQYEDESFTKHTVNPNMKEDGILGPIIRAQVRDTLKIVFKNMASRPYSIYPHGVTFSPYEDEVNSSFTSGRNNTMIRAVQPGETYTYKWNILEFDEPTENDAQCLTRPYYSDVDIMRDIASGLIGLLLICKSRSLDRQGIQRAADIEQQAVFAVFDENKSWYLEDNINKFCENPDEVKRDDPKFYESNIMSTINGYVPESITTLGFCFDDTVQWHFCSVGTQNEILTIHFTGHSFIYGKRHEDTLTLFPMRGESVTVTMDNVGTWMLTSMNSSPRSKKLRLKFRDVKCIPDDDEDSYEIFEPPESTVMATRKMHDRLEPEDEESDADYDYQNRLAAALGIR
Chain of UniProt P12259 (P12259 1047-2224, chain 2 of 2): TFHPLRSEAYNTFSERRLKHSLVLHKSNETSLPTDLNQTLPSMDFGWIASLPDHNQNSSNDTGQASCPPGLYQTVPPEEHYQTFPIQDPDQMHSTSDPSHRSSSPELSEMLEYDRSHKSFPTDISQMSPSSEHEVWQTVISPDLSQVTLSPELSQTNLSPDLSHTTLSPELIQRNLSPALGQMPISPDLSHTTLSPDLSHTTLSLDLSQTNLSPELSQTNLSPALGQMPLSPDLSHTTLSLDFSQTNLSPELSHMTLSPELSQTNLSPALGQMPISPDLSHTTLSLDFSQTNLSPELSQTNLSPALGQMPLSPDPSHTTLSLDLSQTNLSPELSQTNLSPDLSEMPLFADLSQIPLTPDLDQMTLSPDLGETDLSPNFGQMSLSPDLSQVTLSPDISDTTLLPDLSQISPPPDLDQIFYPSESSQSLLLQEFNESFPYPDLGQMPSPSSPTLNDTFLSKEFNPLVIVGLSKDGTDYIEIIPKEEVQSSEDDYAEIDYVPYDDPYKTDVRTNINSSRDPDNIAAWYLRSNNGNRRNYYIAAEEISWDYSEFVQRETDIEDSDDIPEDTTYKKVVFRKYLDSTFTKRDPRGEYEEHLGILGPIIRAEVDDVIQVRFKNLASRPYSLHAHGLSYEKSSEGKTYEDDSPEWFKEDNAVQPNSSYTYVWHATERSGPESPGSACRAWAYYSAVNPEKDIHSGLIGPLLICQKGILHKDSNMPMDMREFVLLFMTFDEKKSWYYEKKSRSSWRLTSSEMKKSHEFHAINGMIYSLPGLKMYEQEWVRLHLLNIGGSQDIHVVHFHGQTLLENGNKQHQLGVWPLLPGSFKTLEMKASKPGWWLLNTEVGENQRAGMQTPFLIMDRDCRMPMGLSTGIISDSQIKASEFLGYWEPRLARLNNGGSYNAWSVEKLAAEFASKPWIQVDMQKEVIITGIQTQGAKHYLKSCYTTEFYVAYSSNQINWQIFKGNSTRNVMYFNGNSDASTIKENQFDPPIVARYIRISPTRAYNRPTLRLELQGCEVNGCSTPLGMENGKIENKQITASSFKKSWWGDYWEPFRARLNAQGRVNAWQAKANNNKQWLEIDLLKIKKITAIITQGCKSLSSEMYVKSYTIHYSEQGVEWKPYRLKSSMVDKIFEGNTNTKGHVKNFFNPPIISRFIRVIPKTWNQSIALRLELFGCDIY

activated protein C (APC) was tested, and the “inactivation of factor Va activity by APC (factor Va activity over time after adding 1.9 nM APC)” value was “the replacement of Arg-506 by Gln only prevents the inactivation of the Xa-activated form of factor V by APC”.
